Reference: paper PMC6776071 (2019)
Bridge positions count the residues as written; N and C are the ends.

B1: M-Hir (M-hirudin-HN-His tag) (natural protein)
chain: MNRYSVCTETGQNLCLCEGSDLCSLDNHCEIGSNGKNRCVKGEGKPKKPQSNSDLPEEKYEPIPIEDYDK
modifications: disulfide 7-15, 17-29, 23-39
B2: mature hirudin-HN protein (Hir) (natural protein)
chain: NRYSVCTETGQNLCLCEGSDLCSLDNHCEIGSNGKNRCVKGEGKPKKPQSNSDLPEEKYEPIPIEDYDK

Target: thrombin (bovine alpha-thrombin) (bovine)
Test: SPR

| Binder | Kd [µM] |
| --- | --- |
| B1 | 2.97 |
| B2 | 0.0647 |
